Measurements published in patent US11946041B2, “Modification of polypeptides” (BicycleRD Limited, priority 2017, dated 2024).

Assays:
CCR4 [1] = biological target: T1, CCR4 (Homo sapiens, UniProt P51679); assay: PathHunter eXpress CCR4 CHO-K1 β-Arrestin GPCR Assay, agonist format; format: cell-based
T1 construct: host or cells: CHO-K1
T1 sequence (P51679 1-360): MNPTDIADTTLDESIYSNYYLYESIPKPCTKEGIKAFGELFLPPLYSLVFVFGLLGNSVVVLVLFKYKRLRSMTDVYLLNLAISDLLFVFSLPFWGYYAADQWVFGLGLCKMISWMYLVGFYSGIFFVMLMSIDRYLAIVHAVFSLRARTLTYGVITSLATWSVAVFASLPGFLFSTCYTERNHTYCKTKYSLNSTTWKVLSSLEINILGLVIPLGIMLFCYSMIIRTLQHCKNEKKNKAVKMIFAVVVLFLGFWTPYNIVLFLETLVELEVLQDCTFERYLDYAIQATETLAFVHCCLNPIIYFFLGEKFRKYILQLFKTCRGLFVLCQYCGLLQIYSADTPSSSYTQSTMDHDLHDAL
Experimental: (§1) The aim of the present experiment was to analyze if if these peptides are functional using a Discoverx Assay, the Beta-Arrestin recruitment assay, to identify agonism or antagonism in the selected peptides.
(§2) Standard protocols used: • PathHunter® eXpress CCR4 CHO-K1 β-Arrestin GPCR Assay. 100 dp (1×96-well)
(§3) The experiment was carried using the manufacturer instructions.
The concentration was increased to test for response at high concentration.

CCR4 [2] = biological target: T1, CCR4; assay: PathHunter eXpress CCR4 CHO-K1 β-Arrestin GPCR Assay, antagonist format with CCL22; format: cell-based; settings: for antagonist for CCR4: 1 nM CCL22
Experimental: as §1, §2, §3
We therefore used the assay in an antagonist format, using 10 nM CCL22.
We repeated this experiment lowering the concentration of CCL22 from 10 nM to 1 nM to show a full inhibition curve.

Sequence: ACLSCARHGNQCA [24-12-00-N001, bicyclic peptide ligand, TATA scaffold, from CCR4 cell-based selection]
- Raw Data (CCR4 [1]; 0.006 nM): 31416
- Raw Data (CCR4 [1]; 0.02 nM): 30201
- Raw Data (CCR4 [1]; 0.06 nM): 30311
- Raw Data (CCR4 [1]; 0.17 nM): 27668
- Raw Data (CCR4 [1]; 0.51 nM): 34202
- Raw Data (CCR4 [1]; 1.5 nM): 31584
- Raw Data (CCR4 [1]; 4.6 nM): 28872
- Raw Data (CCR4 [1]; 13.9 nM): 27830
- Raw Data (CCR4 [1]; 41.7 nM): 26640
- Raw Data (CCR4 [1]; 125 nM): 25288
- Raw Data (CCR4 [1]; 375 nM): 22486
- Raw Data (CCR4 [1]; high concentration, 0.001 uM): 10679
- Raw Data (CCR4 [1]; high concentration, 0.003 uM): 11299
- Raw Data (CCR4 [1]; high concentration, 0.008 uM): 11106
- Raw Data (CCR4 [1]; high concentration, 0.023 uM): 12540
- Raw Data (CCR4 [1]; high concentration, 0.1 uM): 13063
- Raw Data (CCR4 [1]; high concentration, 0.2 uM): 13783
- Raw Data (CCR4 [1]; high concentration, 0.6 uM): 13041
- Raw Data (CCR4 [1]; high concentration, 1.9 uM): 13661
- Raw Data (CCR4 [1]; high concentration, 5.6 uM): 12922
- Raw Data (CCR4 [1]; high concentration, 16.7 uM): 12407
- Raw Data (CCR4 [1]; high concentration, 50 uM): 12457
- Raw Data (CCR4 [2]; 1 nM CCL22, 0.001 uM): 205771
- Raw Data (CCR4 [2]; 1 nM CCL22, 0.003 uM): 230925
- Raw Data (CCR4 [2]; 1 nM CCL22, 0.008 uM): 216507
- Raw Data (CCR4 [2]; 1 nM CCL22, 0.023 uM): 200429
- Raw Data (CCR4 [2]; 1 nM CCL22, 0.1 uM): 190863
- Raw Data (CCR4 [2]; 1 nM CCL22, 0.2 uM): 196279
- Raw Data (CCR4 [2]; 1 nM CCL22, 0.6 uM): 195159
- Raw Data (CCR4 [2]; 1 nM CCL22, 1.9 uM): 184486
- Raw Data (CCR4 [2]; 1 nM CCL22, 5.6 uM): 225342
- Raw Data (CCR4 [2]; 1 nM CCL22, 16.7 uM): 123432
- Raw Data (CCR4 [2]; 1 nM CCL22, 50 uM): 101311
- Raw Data (CCR4 [2]; 10 nM CCL22, 0.001 uM): 162386
- Raw Data (CCR4 [2]; 10 nM CCL22, 0.003 uM): 192263
- Raw Data (CCR4 [2]; 10 nM CCL22, 0.008 uM): 193071
- Raw Data (CCR4 [2]; 10 nM CCL22, 0.023 uM): 176223
- Raw Data (CCR4 [2]; 10 nM CCL22, 0.1 uM): 168443
- Raw Data (CCR4 [2]; 10 nM CCL22, 0.2 uM): 197817
- Raw Data (CCR4 [2]; 10 nM CCL22, 0.6 uM): 207362
- Raw Data (CCR4 [2]; 10 nM CCL22, 1.9 uM): 197426
- Raw Data (CCR4 [2]; 10 nM CCL22, 5.6 uM): 164381
- Raw Data (CCR4 [2]; 10 nM CCL22, 16.7 uM): 163675
- Raw Data (CCR4 [2]; 10 nM CCL22, 50 uM): 134429

Sequence: ACQLTCLTPARQPGCA [24-14-00-N001, bicyclic peptide ligand, TATA scaffold, from CCR4 cell-based selection]
- Raw Data (CCR4 [1]; 0.006 nM): 28548
- Raw Data (CCR4 [1]; 0.02 nM): 25603
- Raw Data (CCR4 [1]; 0.06 nM): 30232
- Raw Data (CCR4 [1]; 0.17 nM): 28531
- Raw Data (CCR4 [1]; 0.51 nM): 32968
- Raw Data (CCR4 [1]; 1.5 nM): 30785
- Raw Data (CCR4 [1]; 4.6 nM): 27510
- Raw Data (CCR4 [1]; 13.9 nM): 24521
- Raw Data (CCR4 [1]; 41.7 nM): 24892
- Raw Data (CCR4 [1]; 125 nM): 21899
- Raw Data (CCR4 [1]; 375 nM): 20214
- Raw Data (CCR4 [1]; high concentration, 0.001 uM): 10817
- Raw Data (CCR4 [1]; high concentration, 0.003 uM): 11788
- Raw Data (CCR4 [1]; high concentration, 0.008 uM): 12385
- Raw Data (CCR4 [1]; high concentration, 0.023 uM): 12607
- Raw Data (CCR4 [1]; high concentration, 0.1 uM): 12143
- Raw Data (CCR4 [1]; high concentration, 0.2 uM): 13151
- Raw Data (CCR4 [1]; high concentration, 0.6 uM): 12839
- Raw Data (CCR4 [1]; high concentration, 1.9 uM): 12725
- Raw Data (CCR4 [1]; high concentration, 5.6 uM): 12720
- Raw Data (CCR4 [1]; high concentration, 16.7 uM): 12239
- Raw Data (CCR4 [1]; high concentration, 50 uM): 13314
- antagonist for CCR4 (CCR4 [2]): antagonist
- Raw Data (CCR4 [2]; 1 nM CCL22, 0.001 uM): 240299
- Raw Data (CCR4 [2]; 1 nM CCL22, 0.003 uM): 222439
- Raw Data (CCR4 [2]; 1 nM CCL22, 0.008 uM): 212749
- Raw Data (CCR4 [2]; 1 nM CCL22, 0.023 uM): 212035
- Raw Data (CCR4 [2]; 1 nM CCL22, 0.1 uM): 215827
- Raw Data (CCR4 [2]; 1 nM CCL22, 0.2 uM): 201484
- Raw Data (CCR4 [2]; 1 nM CCL22, 0.6 uM): 200525
- Raw Data (CCR4 [2]; 1 nM CCL22, 1.9 uM): 198268
- Raw Data (CCR4 [2]; 1 nM CCL22, 5.6 uM): 171795
- Raw Data (CCR4 [2]; 1 nM CCL22, 16.7 uM): 116828
- Raw Data (CCR4 [2]; 1 nM CCL22, 50 uM): 102610
- Raw Data (CCR4 [2]; 10 nM CCL22, 0.001 uM): 163937
- Raw Data (CCR4 [2]; 10 nM CCL22, 0.003 uM): 138339
- Raw Data (CCR4 [2]; 10 nM CCL22, 0.008 uM): 156373
- Raw Data (CCR4 [2]; 10 nM CCL22, 0.023 uM): 159753
- Raw Data (CCR4 [2]; 10 nM CCL22, 0.1 uM): 168602
- Raw Data (CCR4 [2]; 10 nM CCL22, 0.2 uM): 151985
- Raw Data (CCR4 [2]; 10 nM CCL22, 0.6 uM): 158845
- Raw Data (CCR4 [2]; 10 nM CCL22, 1.9 uM): 143688
- Raw Data (CCR4 [2]; 10 nM CCL22, 5.6 uM): 150686
- Raw Data (CCR4 [2]; 10 nM CCL22, 16.7 uM): 132736
- Raw Data (CCR4 [2]; 10 nM CCL22, 50 uM): 138731

Sequence: ACQLTCLPPPRQPGCA [24-15-00-N001, bicyclic peptide ligand, TATA scaffold, from CCR4 cell-based selection]
- Raw Data (CCR4 [1]; 0.006 nM): 28566
- Raw Data (CCR4 [1]; 0.02 nM): 27298
- Raw Data (CCR4 [1]; 0.06 nM): 26888
- Raw Data (CCR4 [1]; 0.17 nM): 28025
- Raw Data (CCR4 [1]; 0.51 nM): 31189
- Raw Data (CCR4 [1]; 1.5 nM): 30670
- Raw Data (CCR4 [1]; 4.6 nM): 27635
- Raw Data (CCR4 [1]; 13.9 nM): 25509
- Raw Data (CCR4 [1]; 41.7 nM): 24463
- Raw Data (CCR4 [1]; 125 nM): 22916
- Raw Data (CCR4 [1]; 375 nM): 24222
- Raw Data (CCR4 [1]; high concentration, 0.001 uM): 10900
- Raw Data (CCR4 [1]; high concentration, 0.003 uM): 11501
- Raw Data (CCR4 [1]; high concentration, 0.008 uM): 12079
- Raw Data (CCR4 [1]; high concentration, 0.023 uM): 12121
- Raw Data (CCR4 [1]; high concentration, 0.1 uM): 13265
- Raw Data (CCR4 [1]; high concentration, 0.2 uM): 13225
- Raw Data (CCR4 [1]; high concentration, 0.6 uM): 13586
- Raw Data (CCR4 [1]; high concentration, 1.9 uM): 13457
- Raw Data (CCR4 [1]; high concentration, 5.6 uM): 13067
- Raw Data (CCR4 [1]; high concentration, 16.7 uM): 13469
- Raw Data (CCR4 [1]; high concentration, 50 uM): 10917
- range of antagonism activity (CCR4 [2]): micromolar range
- antagonist for CCR4 (CCR4 [2]): antagonist
- Raw Data (CCR4 [2]; 1 nM CCL22, 0.001 uM): 244512
- Raw Data (CCR4 [2]; 1 nM CCL22, 0.003 uM): 269008
- Raw Data (CCR4 [2]; 1 nM CCL22, 0.008 uM): 278839
- Raw Data (CCR4 [2]; 1 nM CCL22, 0.023 uM): 265078
- Raw Data (CCR4 [2]; 1 nM CCL22, 0.1 uM): 267763
- Raw Data (CCR4 [2]; 1 nM CCL22, 0.2 uM): 233858
- Raw Data (CCR4 [2]; 1 nM CCL22, 0.6 uM): 230668
- Raw Data (CCR4 [2]; 1 nM CCL22, 1.9 uM): 210573
- Raw Data (CCR4 [2]; 1 nM CCL22, 5.6 uM): 168855
- Raw Data (CCR4 [2]; 1 nM CCL22, 16.7 uM): 47343
- Raw Data (CCR4 [2]; 1 nM CCL22, 50 uM): 37690
- IC80 (CCR4 [2]; 10 nM CCL22): 14 µM
- Raw Data (CCR4 [2]; 10 nM CCL22, 0.001 uM): 166495
- Raw Data (CCR4 [2]; 10 nM CCL22, 0.003 uM): 152456
- Raw Data (CCR4 [2]; 10 nM CCL22, 0.008 uM): 159966
- Raw Data (CCR4 [2]; 10 nM CCL22, 0.023 uM): 163145
- Raw Data (CCR4 [2]; 10 nM CCL22, 0.1 uM): 162443
- Raw Data (CCR4 [2]; 10 nM CCL22, 0.2 uM): 160790
- Raw Data (CCR4 [2]; 10 nM CCL22, 0.6 uM): 164042
- Raw Data (CCR4 [2]; 10 nM CCL22, 1.9 uM): 149995
- Raw Data (CCR4 [2]; 10 nM CCL22, 5.6 uM): 119202
- Raw Data (CCR4 [2]; 10 nM CCL22, 16.7 uM): 94688
- Raw Data (CCR4 [2]; 10 nM CCL22, 50 uM): 55746
